Laboratory results published in patent US20250215059A1.

How the values were obtained:
[1] = biological target: tau aggregates in HEK293 tau biosensor cells (4R repeat domain of tau (K18) with the P301S mutation fused to CFP or YFP, seeded with clarified tau mouse brain homogenate) (UniProt P10636); assay: Halo imaging, colocalization with cytoplasmic tau aggregates (FIG. 5D)
[2] = biological target: tau aggregates in HEK293 tau biosensor cells (4R repeat domain of tau (K18) with the P301S mutation fused to CFP or YFP, seeded with clarified tau mouse brain homogenate) (UniProt P10636); assay: Halo (JF646) imaging; intensity in aggregate over adjacent region, five aggregates
[3] = biological target: tau aggregates in HEK293 tau biosensor cells (4R repeat domain of tau (K18) with the P301S mutation fused to CFP or YFP, seeded with clarified tau mouse brain homogenate) (UniProt P10636); assay: Halo imaging, colocalization with cytoplasmic tau aggregates, 5 images
[4] = biological target: tau aggregates in HEK293 tau biosensor cells (4R repeat domain of tau (K18) with the P301S mutation fused to CFP or YFP, seeded with clarified tau mouse brain homogenate) (UniProt P10636); assay: Halo (JF646) imaging; intensity in aggregate over adjacent region, 5 aggregates
[5] = biological target: tau aggregates in HEK293 tau biosensor cells (4R repeat domain of tau (K18) with the P301S mutation fused to CFP or YFP, seeded with clarified tau mouse brain homogenate) (UniProt P10636); assay: Halo (JF646) imaging in seeded HEK293 tau biosensor cells; mean Halo intensity in aggregates over that of the compartment

Sequence of tau aggregates in HEK293 tau biosensor cells (4R repeat domain of tau (K18) with the P301S mutation fused to CFP or YFP, seeded with clarified tau mouse brain homogenate) (P10636 561-689 P618S): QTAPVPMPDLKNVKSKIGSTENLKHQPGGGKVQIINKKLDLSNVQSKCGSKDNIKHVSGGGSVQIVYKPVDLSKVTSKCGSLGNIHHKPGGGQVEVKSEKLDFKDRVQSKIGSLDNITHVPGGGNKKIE

| Substance | percentage of cytoplasmic tau aggregates with recruitment [1] [%] | mean enrichment in cytoplasmic tau aggregates [2] | percentage of cytoplasmic tau aggregates positive for the construct [3] [%] | mean enrichment in cytoplasmic tau aggregates [4] | mean enrichment in tau aggregates [5] |
| --- | --- | --- | --- | --- | --- |
| Frag_2-Halo (SRRM2 a.a. 2458-2752) | > 90 | 4.3 | 98 |  |  |
| Frag_1-Halo (SRRM2 a.a. 2606-2752) |  | 2.5 |  |  |  |
| 42-polyserine-halo | > 90 |  | 96 | 5.46 |  |

Other lines, results leading:

| percentage of cytoplasmic tau aggregates with recruitment [1] [%] | mean enrichment in cytoplasmic tau aggregates [2] | percentage of cytoplasmic tau aggregates positive for the construct [3] [%] | mean enrichment in cytoplasmic tau aggregates [4] | mean enrichment in tau aggregates [5] | Substance |
| --- | --- | --- | --- | --- | --- |
|  |  |  | 1.19 |  | Halo tagged 20 serine repeat |
|  |  | 62 |  | 2.57 | SRRM2_FL-Halo (from UniProt Q9UQ35 1-2748) |
